From the nanobody polyreactivity screen of Harvey et al. (2022)

Assay: yeast display, Sf9 membrane polyspecificity reagent, FACS + sequencing; frameworks hold sequencing errors
Method in brief: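 After 36–48 hours of galactose induction, yeast (Saccharomyces cerevisiae BJ5465) displaying a synthetic nanobody library were stained at 4 °C for 1 hour with 10% biotinylated, detergent-solubilized Sf9 membrane reagent. Streptavidin microbeads enriched the stained cells before FACS sorting into low and high (top ~1%) gates on anti-HA and streptavidin fluorescence. Each clone's polyreactivity label reflects its gate of origin.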

Sequence | polyreactivity (PSR sort gate)
QVHLVESGGGLVQAGGSLRLSCAASGLTFHVYAMGWYRQAPGKERELVAAISWSGGSTYYADSVKGRFTISRDNAKNTVYLQMNSLKPEDTAVYYCAAESLSQGIWYDYWGQGTQVTVSS | high polyreactivity
QVHLVESGGGLVQAGGSLRLSCAASGNTFGRYAMGWYRQAPGKEREFVAAIRWRGATTYYADSVKGRFTISRDNAKNTVDLQMNSLKPEDTAVYYCAAYYWGQGTGFDYWGQGTQVTVSS | high polyreactivity
QVHLVESGGGLVQAGGSLRLSCAASGRIFAGYARGWYRQAPGKERELVAAISDGGTTNYADSVKGRFTISRDNAKNTVYLQMNSLKPEDTAVYYGAKDAAESYRYGYWGQGTQVSVSS | low polyreactivity
QVHLVESGGGLVQAGGSLRLSCAASGRIFAYNAMGWYRQAPGKERELVAAITSRGTSTYYADSVKGRFTISRDNAKNTVYLQMNSLKQEDTAVYYCNADYNRNSVQVSLYDYWGQGTQVTVSS | low polyreactivity
QVHLVESGGGLVQAGGSLRLSCAASGRIFGAYTMGWYRQAPGKERELVAAIAGRTYYADSVKGRFTISRDNAKYTVYLQMNSLKPEETAVYYFADRYKSRNYDYWGQGTQVTVSS | high polyreactivity
QVHLVESGGGLVQAGGSLRLSCAASGRIFKTYAMRWYRQAPGKERELVAAITASGGRTYDADSVKGRFTISRDNAKNTVYLQMNSLTPEDSAVYYCAAPLLRDLRSPYYYNYWGQGTQVTVSS | low polyreactivity
QVHLVESGGGLVQAGGSLRLSCAASGRIFRRNTMGWYRQAPGKERELVAAITSSGGSTYADSVKGRFTISRDNAKNTVYLQMNSLKPEDTAVYYCATYVAYHRGYRTYDHWGQGTQVTVSS | low polyreactivity
QVHLVESGGGLVQAGGSLRLSCAASGRIFRRYAMGWSRQAPGKERELVAAISSGGSTYYADSVKGRFTISRDNAKNTVYLQMNSLKPEDTAVYYCNAKVGAYLNYGYWGQGTQVTVSS | low polyreactivity
QVHLVESGGGLVQAGGSLRLSCAASGRIFRYYAIGWYRQAPGKERELVAAITWRGDSTYYADSVKGRFTISRDNAKNTVYLQMNSLKPEDTAVYYCNKRWTDKYDSWGQGTQVTVSS | high polyreactivity
QVHLVESGGGLVQAGGSLRLSCAASGRIFSGYAMGWYRQAPGKERELVAAITSGASTNYADSVNGRFTISRDNPKITVYLQLNSLKPVVTAFYYCAATFHSWRGQYLWYDYWGQGTQVTVSS | low polyreactivity
QVHLVESGGGLVQAGGSLRLSCAASGRIFSSNAMGWYRQAPGKERELVAAISWIVGRTYYADSVKGRFTISRDNAKNTVYLQMNRLKPEDTAVYYCAKGSYYGRKRGWGYYYWGQGTQVTVSS | high polyreactivity
QVHLVESGGGLVQAGGSLRLSCAASGRIFTRNAMVWYRQAPGKERELVAAISHSGGSTYADSVKGRFTISRDNAKNTVYLQMNSLKPEDTAVYYCAAKYYFEWNSALDYWGQGTQVTVSS | low polyreactivity
QVHLVESGGGLVQAGGSLRLSCAASGRIFVTYAMGWYRQAPGKERELVAAIPWDGDSTYYADSVKGRFTFSRDNAKNTVYLQMNSLKREDTAVYYCNAKKFNSHVELGYDYWGQGTQVTVSS | low polyreactivity
QVHLVESGGGLVQAGGSLRLSCAASGRIFYSHAMGWYRQAPGKEREFVAAISWSGGGTYYADSVKGRFTISRDNAKNTVYLQMNSLKPQDTAVYYCAARFRYYGSEYDYWGQGTKVTVSS | low polyreactivity
QVHLVESGGGLVQAGGSLRLSCAASGRIIRYNAMGWYRQAPGKERELDAAITRSGGSTYYADSVKGRFTISRDNAKNTVYLQMNSLKPEDTGVYYCAKVQNGQWSTSGVPGDYQYNYWGQATQVTVSS | high polyreactivity
QVHLVESGGGLVQAGGSLRLSCAASGRNFSSYAMGWYRQAPGKEWELVAAIRRGGGSTSYADSVKGRFTISRDNAKKTVYLQMNSLKPEDTAVYYCAADSPRGQVHYIGGYWGHGTQVTVSS | low polyreactivity
QVHLVESGGGLVQAGGSLRLSCAASGRTFATNTMGWYRQAPGKEREFVAAISRGGVSTSYADSVKGRFTISRDNAKNTVYLQMNSLKPEDTAVYYCAAKHYGFNRNHRHSYDYWGQGTQVTVSS | high polyreactivity
QVHLVESGGGLVQAGGSLRLSCAASGRTFDRYDMGWYRQAPGKEWELVATISSSGGSTYYADSVKGRFTISRDNEKNTVYLQMNSLKPEDTAVYYCAADPSGDYWGQGTQVTVSS | low polyreactivity
QVHLVESGGGLVQAGGSLRLSCAASGRTFINYAMGWYRQAPGKERELVAAITTGGRTNYADSVKGRFTISRDNAKNTVYLQMNSLKPEDTAVYYCAADRYYWGRYTLNYWGQGTQVTVSS | low polyreactivity
QVHLVESGGGLVQAGGSLRLSCAASGRTFIRYTMGWYRQAPGKEREFVAAINTSGGRTYYADSVKGRFTISRDNAKNTVYLQMNSLKPEDTAVYYCAAGYSASRKVDYWGQGTQVTVSS | high polyreactivity
QVHLVESGGGLVQAGGSLRLSCAASGRTFPSYAMGWYRQAPGKERELVAAISSSGGSTYYADSVKGRFTISRDNAKNTVYLQMNSLKPEDTAVYYCAAATPSGYYYWGQGTQVTVSS | high polyreactivity
QVHLVESGGGLVQAGGSLRLSCAASGRTFREYFMGWYRQAPGQERELVAVISWSTGSTYADSVKGRFTISRDNAKNTVYLQMNSLKPEDTAVYYCARRVQSLRNVVIYNYWGQGTQVTVSS | low polyreactivity

Sequence | polyreactivity (PSR sort gate)
QVHLVESGGGLVQAGGSLRLSCAASGRTFRKYAMGWYRQAPGKERELVAAISSSGGRTYYADSVKGRFTISRDNAKNTVYLQMNSLKPEDTAVYYCAAKQGNRNSYKYDYWGQGTQVTVSS | high polyreactivity
QVHLVESGGGLVQAGGSLRLSCAASGRTFRYYAMGWYRPAPGKERELVAAISSSGDRTYYADSVKGRFTISRDNAKNTVYLQMNSLKPEDTSVYYCAADRGARGDYYWGQGTQVTVSS | high polyreactivity
QVHLVESGGGLVQAGGSLRLSCAASGRTFRYYAMGWYRQAPGKERELVASISSTGGNTYYADSVKGRFTISRDNAKNTVYLQMNSLKPEDTAVYYCAAGAWTRGQYYYWGQGTQVTVSS | high polyreactivity
QVHLVESGGGLVQAGGSLRLSCAASGRTFWSYAMGWYRQAPGKERELVAAISWRSGTTYYADSVKGRFTISRDNAKNTVYLQMNSLKPEDTAVYYCNAHSNYRGDYWGQGTQVTVSS | high polyreactivity
QVHLVESGGGLVQAGGSLRLSCAASGRTFWVYAMGWYRQAPGKERQLVAAINRRGGGTYYADSVKGRFTISRDNAKNTVYLQMNTLKPEDTAVYYCAAVSTRVRVNYDSWGQGTQVTVSS | high polyreactivity
QVHLVESGGGLVQAGGSLRLSCAASGRTFYGNAMGWYRQATGKERELVAAINRDGGTYYADSVKGRFTISRDNAKNTVYLQMNSLKTEDTAVYYCNAVKRGIRYGYWGQGTQVTVSS | high polyreactivity
QVHLVESGGGLVQAGGSLRLSCAASGRTFYSYAMGWYRQAHGKERELVAAINTSGGRKHYADSVKGRFTISRDNAKNTVYLQMNSLKPEDTAVYYCAARYLGGRLSGDYSRYYWGQGTQVTVSS | high polyreactivity
QVHLVESGGGLVQAGGSLRLSCAASGRTFYVYAMGWYIQAPGKERELVATITSRGGRTYYADSVKGRFTISRDNAKNTVYLQMNSLKPEDTAVYYCNAAWWKVSYVRQKYYYWGQGTQVTVSS | high polyreactivity
QVHLVESGGGLVQAGGSLRLSCAASGRTIVGYDMGWYRQAPGKEMELVAAISSRGGSTYYADSVKGRFTISRDNAKNTVYLQRNSLKPEDTAVYYCAALWYVGYGPVDYWGQGTQVTVSS | high polyreactivity
QVHLVESGGGLVQAGGSLRLSCAASGRTLGGYAMGWYRQAPGKERELVAVITWNGGSTYADSVKGRFTISRDNAKNTVYLQRNSLKPEDTAVYYCAVYIPRGGRSGYWGQGTQVTVSS | high polyreactivity
QVHLVESGGGLVQAGGSLRLSCAASGRTLYCYAMGWYRQAPGKERELVASIRSGGSTNYADSVKGRFTISRDNAKNTVYLQMNSLKPEVTAVYYCNTGSRLDRVDSWGQGTQVTVSS | low polyreactivity
QVHLVESGGGLVQAGGSLRLSCAASGRTYGVNAMGRYRQAPGKEREFVAAISKRGGSTYYADSVKGRFTISRDNAKNTVYLQMNSLKPEDTAGYYCAADYTTHYWGQGTQVTVSS | high polyreactivity
QVHLVESGGGLVQAGGSLRLSCAASGSIFAINAMGWYRQAPGKERELVARISWSGGRTYYADSVKGRFTISRDNAKNTVYLQMNSLKPEDTAVYYCAKRYYKSLNRDEFDSWGQGTQVTVSS | high polyreactivity
QVHLVESGGGLVQAGGSLRLSCAASGSIFAWYGMGWYRQAPGKERELVAAISTAGSTNYADSVKGRFTISRDNAKNTVYLQMNSLKPEDTAVYYCAADWGGLWFWYEYWGQCTQVTVSS | low polyreactivity
QVHLVESGGGLVQAGGSLRLSCAASGSIFDEYAMGWYRQAPGKERELVAAITSGGSTNYADSVKGRFTISRDNAKNTVYLQMNSLKPEDTAVYYCNVARQAKGMGYWGQGTEVTVSS | low polyreactivity
QVHLVESGGGLVQAGGSLRLSCAASGSIFEINAMGWYRQAPGKEWELVAAITGSGGSTHYADSVKGRFTISRDNAKNTVYLPMNSLNPEDTAVYYCAAVPRYQYGYWGQGTQVTVSS | low polyreactivity
QVHLVESGGGLVQAGGSLRLSCAASGSIFNENAMGWYRQAPGKERELVATISRRGGSTYYADSVKGRFTISRDNAKNTVYLQMNSLKPEDTAVYYCARDIFWVVYWGQGTQVTVSS | high polyreactivity
QVHLVESGGGLVQAGGSLRLSCAASGSIFRKYAMGWYRQAPGKERELLAAISVSGGSTYYADSVKGRFTISRDNAKNTVYLQMNSLNPEDTAVYYCAADSGPFNRYAPRGYWGQGTQVTVSS | low polyreactivity
QVHLVESGGGLVQAGGSLRLSCAASGSIFSYYAMGWYRQAPGKERELVASITYSGGSTYYADSVKGRFTISRDNAKNTVYLQMNSLKPEDTAVYYCNTDWRTSVGYDYWGQGTQVTVSS | low polyreactivity
QVHLVESGGGLVQAGGSLRLSCAASGSIFTSYAMGWYRQAPGKERELVAAITSGGSTNYADSVKGRFTISRDNAKNTVFLKMNSLKPEDTAVDYCAKDRPGQLRWWFLYGYWGQGTQVTVSS | low polyreactivity
QVHLVESGGGLVQAGGSLRLSCAASGSIFYDYAMVWYIQAPGKERELVAAINSGDSTYYADSVKGRFTISRDNAKNTVYLQMNSLKPEDTAVYFCAATYFSPYIEYDYWGQGTQVTVSS | low polyreactivity
